Results published in the supplement of paper PMC10065799, “High-throughput profiling of sequence recognition by tyrosine kinases and SH2 domains using bacterial peptide display” (eLife, 2023).

Experiments:
AncSZ = assay: phosphorylation enrichment, bacterial display (enrichment ratio); higher = better substrate or ligand; peptides without Tyr show the background
EPHB1 = EPHB1 (UniProt P54762); assay: as above
EPHB2 = EPHB2 (UniProt P29323); assay: as above
FGFR1 = FGFR1 (UniProt P11362); assay: as above
FGFR3 = FGFR3 (UniProt P22607); assay: as above
Fer (mouse) = assay: as above
Fes = Fes (UniProt P07332); assay: as above
Fyn = Fyn (UniProt P06241); assay: as above
Hck = Hck (UniProt P08631); assay: as above
Jak2 = Jak2 (UniProt O60674); assay: as above
MERTK = MERTK (UniProt Q12866); assay: as above
c-Abl (mouse) = assay: as above
c-Src = assay: as above
Grb2 SH2 = Grb2 SH2 (UniProt P62993); assay: SH2 binding enrichment of the phosphorylated peptide, bacterial display (enrichment ratio); higher = better substrate or ligand; peptides without Tyr show the background
SHP2-C SH2 = assay: as above
c-Src SH2 = assay: as above
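Wherever SH2 binding enrichment of the phosphorylated peptide, bacterial display is given: peptide library displayed on the E. coli surface as eCPX fusions, selected cells deep-sequenced, score is each peptide's frequency after selection divided by its frequency in the input.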
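Wherever phosphorylation enrichment, bacterial display is given: 11-residue human phosphosite peptides and single-mutation variants displayed on the E. coli surface, counted by deep sequencing, each peptide's frequency after selection divided by its frequency in the unselected input library; frequency after pTyr selection over input frequency; kinase dosed for 20-30% of maximal phosphorylation in three min.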

Sequence of Fyn (P06241 whole entry, looked up): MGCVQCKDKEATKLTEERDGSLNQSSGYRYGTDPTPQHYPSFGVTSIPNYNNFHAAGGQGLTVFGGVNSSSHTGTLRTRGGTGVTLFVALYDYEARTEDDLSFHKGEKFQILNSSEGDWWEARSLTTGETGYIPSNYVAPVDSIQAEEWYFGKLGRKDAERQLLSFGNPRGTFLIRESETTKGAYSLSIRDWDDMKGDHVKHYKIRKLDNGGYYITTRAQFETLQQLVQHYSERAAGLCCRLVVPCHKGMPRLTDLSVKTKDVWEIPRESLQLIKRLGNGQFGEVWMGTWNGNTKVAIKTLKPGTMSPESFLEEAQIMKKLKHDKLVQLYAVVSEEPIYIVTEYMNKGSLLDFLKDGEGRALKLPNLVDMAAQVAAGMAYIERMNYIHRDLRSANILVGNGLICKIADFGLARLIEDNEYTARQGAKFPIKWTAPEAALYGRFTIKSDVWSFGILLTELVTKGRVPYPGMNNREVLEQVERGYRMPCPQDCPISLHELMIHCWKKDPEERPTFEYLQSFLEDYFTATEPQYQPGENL
Sequence of Grb2 SH2 (P62993 whole entry, looked up): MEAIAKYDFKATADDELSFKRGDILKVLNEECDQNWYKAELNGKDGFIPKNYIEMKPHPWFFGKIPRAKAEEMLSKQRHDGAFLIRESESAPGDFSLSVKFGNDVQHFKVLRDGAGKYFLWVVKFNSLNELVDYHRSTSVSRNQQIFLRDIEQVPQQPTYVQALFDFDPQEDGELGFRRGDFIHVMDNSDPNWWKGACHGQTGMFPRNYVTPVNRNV
Sequence of Hck (P08631 whole entry, looked up): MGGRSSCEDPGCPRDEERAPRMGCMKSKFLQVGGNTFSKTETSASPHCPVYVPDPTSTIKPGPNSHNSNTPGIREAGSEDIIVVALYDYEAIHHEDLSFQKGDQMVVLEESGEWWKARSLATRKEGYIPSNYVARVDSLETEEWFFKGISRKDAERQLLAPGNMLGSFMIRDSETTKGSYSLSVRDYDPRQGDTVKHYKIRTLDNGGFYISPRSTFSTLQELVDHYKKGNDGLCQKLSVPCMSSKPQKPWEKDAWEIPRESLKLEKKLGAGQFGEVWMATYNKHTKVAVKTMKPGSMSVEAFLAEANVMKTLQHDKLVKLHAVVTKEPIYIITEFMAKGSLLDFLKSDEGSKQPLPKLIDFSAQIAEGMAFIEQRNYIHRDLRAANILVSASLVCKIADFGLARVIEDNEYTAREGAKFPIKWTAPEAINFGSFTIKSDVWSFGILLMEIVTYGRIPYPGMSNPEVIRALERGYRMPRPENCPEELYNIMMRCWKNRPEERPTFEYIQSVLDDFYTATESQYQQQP
Sequence of MERTK (Q12866 whole entry, looked up): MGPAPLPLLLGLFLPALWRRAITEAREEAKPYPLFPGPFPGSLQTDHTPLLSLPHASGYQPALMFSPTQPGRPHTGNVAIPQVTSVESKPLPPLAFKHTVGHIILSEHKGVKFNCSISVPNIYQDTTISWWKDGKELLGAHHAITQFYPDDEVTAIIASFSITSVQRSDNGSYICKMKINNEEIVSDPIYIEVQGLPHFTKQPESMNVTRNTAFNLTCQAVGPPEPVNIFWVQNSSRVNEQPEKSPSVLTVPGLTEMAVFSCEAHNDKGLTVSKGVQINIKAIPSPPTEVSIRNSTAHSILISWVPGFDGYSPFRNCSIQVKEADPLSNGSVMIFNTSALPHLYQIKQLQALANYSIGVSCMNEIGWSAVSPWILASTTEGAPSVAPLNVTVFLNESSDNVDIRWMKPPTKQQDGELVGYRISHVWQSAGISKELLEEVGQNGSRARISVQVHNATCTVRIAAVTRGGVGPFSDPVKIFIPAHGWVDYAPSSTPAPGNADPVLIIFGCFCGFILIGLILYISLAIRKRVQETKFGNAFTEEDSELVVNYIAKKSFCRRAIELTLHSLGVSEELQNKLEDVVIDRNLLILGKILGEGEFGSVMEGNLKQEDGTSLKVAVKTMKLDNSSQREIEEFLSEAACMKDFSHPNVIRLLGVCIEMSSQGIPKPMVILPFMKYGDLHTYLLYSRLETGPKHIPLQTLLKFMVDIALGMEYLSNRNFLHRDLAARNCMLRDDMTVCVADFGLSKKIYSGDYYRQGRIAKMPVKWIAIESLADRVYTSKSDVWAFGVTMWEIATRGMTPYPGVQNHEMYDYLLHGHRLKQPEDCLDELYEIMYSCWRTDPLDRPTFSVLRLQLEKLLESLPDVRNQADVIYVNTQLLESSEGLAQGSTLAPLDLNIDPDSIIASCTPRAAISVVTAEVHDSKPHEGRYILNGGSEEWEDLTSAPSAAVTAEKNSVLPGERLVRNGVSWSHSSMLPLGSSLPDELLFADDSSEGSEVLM
Sequence of EPHB2 (P29323 whole entry, looked up): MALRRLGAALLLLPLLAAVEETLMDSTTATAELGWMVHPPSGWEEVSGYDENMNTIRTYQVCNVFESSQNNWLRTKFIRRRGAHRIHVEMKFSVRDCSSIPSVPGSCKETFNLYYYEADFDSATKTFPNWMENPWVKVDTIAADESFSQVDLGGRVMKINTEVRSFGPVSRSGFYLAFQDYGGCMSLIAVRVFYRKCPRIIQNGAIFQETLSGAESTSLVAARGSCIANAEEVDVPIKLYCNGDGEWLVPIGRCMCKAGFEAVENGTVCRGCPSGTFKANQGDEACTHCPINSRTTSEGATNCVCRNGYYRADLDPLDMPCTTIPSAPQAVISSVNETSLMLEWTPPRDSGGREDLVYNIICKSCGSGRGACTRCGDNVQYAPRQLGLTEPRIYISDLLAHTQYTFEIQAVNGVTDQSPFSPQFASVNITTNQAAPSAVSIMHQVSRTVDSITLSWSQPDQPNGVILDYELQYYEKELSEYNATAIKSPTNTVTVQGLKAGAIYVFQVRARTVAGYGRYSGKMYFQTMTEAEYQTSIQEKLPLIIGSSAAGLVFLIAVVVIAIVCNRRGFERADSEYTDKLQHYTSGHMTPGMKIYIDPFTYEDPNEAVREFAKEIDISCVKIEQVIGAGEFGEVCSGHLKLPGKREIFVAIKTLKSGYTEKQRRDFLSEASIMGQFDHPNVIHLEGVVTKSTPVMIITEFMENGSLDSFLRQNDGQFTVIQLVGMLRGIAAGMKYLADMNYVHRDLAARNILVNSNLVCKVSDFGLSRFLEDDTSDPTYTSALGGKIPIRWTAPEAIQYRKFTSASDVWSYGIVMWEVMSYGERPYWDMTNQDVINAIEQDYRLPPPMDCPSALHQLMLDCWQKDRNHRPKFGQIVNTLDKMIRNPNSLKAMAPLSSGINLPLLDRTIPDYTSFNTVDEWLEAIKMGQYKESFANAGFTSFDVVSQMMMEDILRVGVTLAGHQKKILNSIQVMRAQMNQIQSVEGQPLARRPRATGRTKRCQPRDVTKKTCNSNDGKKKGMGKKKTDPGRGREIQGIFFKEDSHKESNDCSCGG
Sequence of FGFR1 (P11362 whole entry, looked up): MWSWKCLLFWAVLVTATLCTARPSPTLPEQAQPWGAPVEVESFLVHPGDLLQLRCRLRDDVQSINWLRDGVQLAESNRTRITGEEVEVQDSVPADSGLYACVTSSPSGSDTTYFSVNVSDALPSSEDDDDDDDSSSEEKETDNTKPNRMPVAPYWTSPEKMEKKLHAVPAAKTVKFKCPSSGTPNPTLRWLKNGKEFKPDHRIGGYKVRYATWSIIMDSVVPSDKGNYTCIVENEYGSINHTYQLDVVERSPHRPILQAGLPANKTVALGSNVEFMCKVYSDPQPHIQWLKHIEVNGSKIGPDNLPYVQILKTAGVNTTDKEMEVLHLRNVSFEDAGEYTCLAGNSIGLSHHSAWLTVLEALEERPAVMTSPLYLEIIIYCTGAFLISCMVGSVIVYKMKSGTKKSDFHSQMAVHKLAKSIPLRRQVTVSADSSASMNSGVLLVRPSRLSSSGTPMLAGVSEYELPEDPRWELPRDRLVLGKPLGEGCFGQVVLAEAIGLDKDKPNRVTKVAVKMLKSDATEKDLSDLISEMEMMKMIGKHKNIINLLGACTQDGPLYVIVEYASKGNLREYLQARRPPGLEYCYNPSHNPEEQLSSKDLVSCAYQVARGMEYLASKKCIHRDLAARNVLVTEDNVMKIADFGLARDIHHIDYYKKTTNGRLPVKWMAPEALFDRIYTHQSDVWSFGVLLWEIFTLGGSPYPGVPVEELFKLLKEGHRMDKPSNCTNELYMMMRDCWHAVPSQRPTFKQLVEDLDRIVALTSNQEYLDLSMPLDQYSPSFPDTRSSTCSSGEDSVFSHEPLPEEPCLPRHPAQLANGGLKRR
Sequence of Fes (P07332 whole entry, looked up): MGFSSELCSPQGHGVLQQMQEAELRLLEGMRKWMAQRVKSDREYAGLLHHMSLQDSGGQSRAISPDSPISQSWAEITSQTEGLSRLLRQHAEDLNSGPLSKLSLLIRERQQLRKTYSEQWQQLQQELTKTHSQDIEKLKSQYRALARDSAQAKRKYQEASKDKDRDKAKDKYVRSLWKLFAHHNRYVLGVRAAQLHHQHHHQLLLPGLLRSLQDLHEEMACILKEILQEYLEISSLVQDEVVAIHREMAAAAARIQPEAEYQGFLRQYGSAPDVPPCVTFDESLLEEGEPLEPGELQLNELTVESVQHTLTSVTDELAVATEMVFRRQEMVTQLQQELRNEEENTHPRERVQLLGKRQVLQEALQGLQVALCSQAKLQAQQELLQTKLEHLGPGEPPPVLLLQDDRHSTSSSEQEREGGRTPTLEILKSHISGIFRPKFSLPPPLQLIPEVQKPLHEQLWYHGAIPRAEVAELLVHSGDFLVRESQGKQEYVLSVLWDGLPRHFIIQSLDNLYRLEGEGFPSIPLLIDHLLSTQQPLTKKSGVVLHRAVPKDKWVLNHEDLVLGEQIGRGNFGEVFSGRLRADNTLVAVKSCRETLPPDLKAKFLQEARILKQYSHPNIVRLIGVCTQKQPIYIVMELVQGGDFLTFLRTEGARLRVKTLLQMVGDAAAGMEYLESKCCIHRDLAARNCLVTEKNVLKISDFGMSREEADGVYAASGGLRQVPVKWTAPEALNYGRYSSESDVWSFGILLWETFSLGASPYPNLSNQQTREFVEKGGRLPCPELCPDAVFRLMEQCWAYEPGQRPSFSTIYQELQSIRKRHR

Sequence | phosphorylation enrichment (AncSZ) | phosphorylation enrichment (EPHB1) | phosphorylation enrichment (EPHB2) | phosphorylation enrichment (FGFR1) | phosphorylation enrichment (FGFR3) | phosphorylation enrichment (Fer (mouse)) | phosphorylation enrichment (Fes) | phosphorylation enrichment (Fyn) | phosphorylation enrichment (Hck) | phosphorylation enrichment (Jak2) | phosphorylation enrichment (MERTK) | phosphorylation enrichment (c-Abl (mouse)) | phosphorylation enrichment (c-Src) | SH2 binding enrichment (Grb2 SH2) | SH2 binding enrichment (SHP2-C SH2) | SH2 binding enrichment (c-Src SH2)
AQESNYRLLRR [SLC20A2_Y377] | 0.738 | 0.48 | 0.498 | 0.409 | 0.527 | 0.414 | 0.688 | 0.45 | 0.443 | 0.593 | 0.406 | 0.984 | 0.365 | 0.823 | 0.439 | 0.456
ARRHPYFFAPE [ALB_Y172_Y174F] | 1.09 | 0.546 | 0.635 | 2.85 | 1.86 | 0.559 | 0.746 | 0.58 | 0.402 | 0.726 | 0.588 | 0.538 | 0.721 | 0.821 | 0.566 | 0.525
ASIVDYNIIGW [MYH7_Y588_G584S] | 1.11 | 0.742 | 0.528 | 0.948 | 0.865 | 0.59 | 1.22 | 0.45 | 0.605 | 0.947 | 0.498 | 0.92 | 0.514 | 0.761 | 0.769 | 0.535
ASTHIYQIMNH [ITK_Y588_V587I] | 0.562 | 8.67 | 2.63 | 0.735 | 0.624 | 6.35 | 0.754 | 4.85 | 5.65 | 0.469 | 6.62 | 1.24 | 4.36 | 0.923 | 1.41 | 5.44
ATATEYHTTSH [SLC4A1_Y46_D45E] | 0.506 | 0.316 | 0.55 | 0.456 | 0.309 | 0.301 | 0.509 | 0.38 | 0.333 | 0.99 | 0.395 | 0.487 | 0.413 | 1 | 0.518 | 0.548
ATDLAYYLVCK [ASL_Y375_R379C] | 2.13 | 1.08 | 0.885 | 3.43 | 3.06 | 0.696 | 1.77 | 0.852 | 1.02 | 2.82 | 0.884 | 1.04 | 1.06 | 0.803 | 0.505 | 0.59
ATGLIYIGSHD [AASDH_Y870_T865A] | 0.827 | 0.724 | 0.724 | 0.427 | 0.684 | 0.52 | 1.15 | 0.427 | 0.469 | 0.809 | 0.543 | 0.881 | 0.492 | 0.759 | 0.526 | 0.598
ATHRGYDLDNP [MMUT_Y146_S148L] | 0.64 | 0.459 | 0.434 | 0.409 | 0.727 | 0.413 | 0.79 | 0.392 | 0.411 | 0.698 | 0.343 | 0.614 | 0.377 | 0.721 | 0.654 | 0.384
ATPKGYEPDAS [OTC_Y223] | 0.738 | 0.439 | 0.575 | 0.49 | 0.59 | 0.508 | 0.843 | 0.501 | 0.444 | 0.79 | 0.489 | 0.729 | 0.541 | 0.933 | 1.02 | 0.557
ATRDVYNPFET [SCAMP3_Y41_L38R] | 0.835 | 0.454 | 0.454 | 0.54 | 0.598 | 0.457 | 1.03 | 1.08 | 1.06 | 0.901 | 0.485 | 0.617 | 1.48 | 0.703 | 0.658 | 0.427
AVAFLYFKSIG [ADGRL4_Y301_V300L_YF] | 1.14 | 0.683 | 0.649 | 0.549 | 0.837 | 0.605 | 1.62 | 0.483 | 0.516 | 1.33 | 0.478 | 0.851 | 0.441 | 0.806 | 1.07 | 0.569
AVEDQYFCVDC [FHL1_Y207_YF] | 2.15 | 1.17 | 0.862 | 5.2 | 3.66 | 0.7 | 1.64 | 0.775 | 0.791 | 1.48 | 0.622 | 0.868 | 0.703 | 0.849 | 0.736 | 0.662
AVLSLYASGST [ACTG2_Y144_R148S] | 1.08 | 0.729 | 0.722 | 0.572 | 0.723 | 0.558 | 1.26 | 0.476 | 0.638 | 1.09 | 0.414 | 0.829 | 0.541 | 1.06 | 0.907 | 0.611
AVVEPYNSLLT [TUBA1A_Y185_I188L] | 0.888 | 0.574 | 0.618 | 0.399 | 0.54 | 0.394 | 0.891 | 0.426 | 0.427 | 1.19 | 0.454 | 0.579 | 0.463 | 0.786 | 0.648 | 1.31
AYRRGYFDEEM [PLEC_Y2971] | 1.13 | 0.469 | 0.377 | 0.477 | 0.5 | 0.389 | 0.906 | 0.442 | 0.397 | 0.849 | 0.412 | 0.54 | 0.371 | 0.573 | 0.91 | 0.463
CDKEFYSVHNK [MET_Y1235_Y1230C_YF] | 0.732 | 0.461 | 0.586 | 0.441 | 0.606 | 0.405 | 0.827 | 0.504 | 0.46 | 0.68 | 0.423 | 0.55 | 0.491 | 1 | 0.902 | 0.727
CDSSGYWTPEE [PAPPA2_Y908] | 1.25 | 0.676 | 0.654 | 0.579 | 0.783 | 0.556 | 1.47 | 0.454 | 0.555 | 1.22 | 0.494 | 0.727 | 0.508 | 0.967 | 1.08 | 14.9

Sequence | phosphorylation enrichment (AncSZ) | phosphorylation enrichment (EPHB1) | phosphorylation enrichment (EPHB2) | phosphorylation enrichment (FGFR1) | phosphorylation enrichment (FGFR3) | phosphorylation enrichment (Fer (mouse)) | phosphorylation enrichment (Fes) | phosphorylation enrichment (Fyn) | phosphorylation enrichment (Hck) | phosphorylation enrichment (Jak2) | phosphorylation enrichment (MERTK) | phosphorylation enrichment (c-Abl (mouse)) | phosphorylation enrichment (c-Src) | SH2 binding enrichment (Grb2 SH2) | SH2 binding enrichment (SHP2-C SH2) | SH2 binding enrichment (c-Src SH2)
CEETFYTMKMN [MASP2_Y401_V405M] | 1.99 | 0.939 | 0.894 | 0.666 | 1.11 | 0.935 | 1.87 | 1.59 | 1.09 | 1.83 | 0.829 | 1.3 | 2.6 | 0.771 | 0.657 | 0.575
CEHRGCLFLAI [TEK_Y897_Y897C_YF] | 1.02 | 0.554 | 0.468 | 0.455 | 0.624 | 0.421 | 1.13 | 0.334 | 0.38 | 0.797 | 0.298 | 0.601 | 0.282 | 0.934 | 0.974 | 0.751
CGQDPCIRELG [UROS_Y19_Y19C] | 0.991 | 0.44 | 0.508 | 0.581 | 0.569 | 0.458 | 0.946 | 0.468 | 0.423 | 0.821 | 0.449 | 0.644 | 0.421 | 1.03 | 1.06 | 0.762
CGSLLYGLVHQ [PRKCG_Y122] | 0.889 | 2.22 | 4.64 | 0.545 | 0.663 | 12.9 | 1.2 | 5.73 | 7.19 | 0.673 | 7.41 | 0.664 | 5.57 | 0.987 | 0.908 | 0.519
CHSDDYVHISI [TSC1_Y406_L411I] | 1.65 | 0.898 | 0.67 | 1.65 | 1.29 | 0.597 | 1.39 | 0.532 | 0.573 | 1.07 | 0.457 | 0.879 | 0.524 | 0.811 | 0.723 | 0.575
CLAKMYFSAVE [CP_Y539_D544E_YF] | 1.22 | 0.589 | 0.552 | 0.599 | 0.909 | 0.602 | 1.35 | 0.822 | 0.663 | 1.19 | 0.514 | 0.848 | 0.721 | 1.09 | 0.834 | 0.621
CLAQRYLIWEC [SCN5A_Y694_R689C] | 1.29 | 0.836 | 0.646 | 0.693 | 0.783 | 0.568 | 1.39 | 0.533 | 0.535 | 1.03 | 0.48 | 0.788 | 0.505 | 1.32 | 1.65 | 1.28
CLLHCYFSQIH [MCM3AP_Y873_R878H] | 0.886 | 0.626 | 0.453 | 0.689 | 0.736 | 0.569 | 1.29 | 0.43 | 0.476 | 1.26 | 0.431 | 0.664 | 0.476 | 2.04 | 1.53 | 1.38
CNPLCYPTIMI [OR6K6_Y160_R159C] | 0.867 | 0.518 | 0.524 | 1.71 | 0.828 | 1.37 | 0.821 | 0.408 | 0.442 | 0.721 | 0.917 | 0.596 | 0.416 | 0.622 | 0.617 | 0.42
CPTIHYNFMCN [TP53_Y234_T230P_YF] | 1.09 | 0.576 | 0.596 | 0.687 | 0.79 | 0.646 | 1.17 | 0.557 | 0.655 | 0.916 | 0.501 | 0.757 | 0.603 | 1.41 | 1.97 | 2.71
CQLENYCNGGG [INS_Y108_Y103C] | 0.925 | 0.681 | 0.696 | 0.573 | 0.664 | 0.49 | 0.89 | 0.54 | 0.57 | 0.837 | 0.503 | 0.621 | 0.494 | 1.29 | 0.888 | 1.17
CRAVKYLQMVG [AVPR2_Y117] | 0.711 | 0.608 | 0.44 | 0.499 | 0.574 | 0.443 | 0.739 | 0.405 | 0.504 | 0.619 | 0.379 | 0.522 | 0.401 | 0.964 | 1.24 | 0.521
CTTIHHNYMCN [TP53_Y234_Y234H] | 0.766 | 0.486 | 0.531 | 0.601 | 0.586 | 0.412 | 0.649 | 0.459 | 0.455 | 0.835 | 0.362 | 0.525 | 0.432 | 1.01 | 1.03 | 1.23
CTTIHYNFMHN [TP53_Y234_C238H_YF] | 0.829 | 0.583 | 0.54 | 0.457 | 0.676 | 0.463 | 1 | 0.566 | 0.517 | 0.799 | 0.454 | 0.765 | 0.432 | 1.07 | 0.836 | 0.85
CTTIHYNYKCN [TP53_Y234_M237K] | 0.754 | 0.433 | 0.539 | 0.526 | 0.566 | 0.408 | 0.878 | 0.454 | 0.484 | 0.62 | 0.562 | 0.493 | 0.454 | 1.42 | 1.4 | 1.67
CTTIHYNYMCH [TP53_Y234_N239H] | 0.751 | 0.724 | 0.761 | 0.514 | 0.706 | 0.597 | 0.855 | 0.449 | 0.49 | 0.672 | 0.407 | 0.581 | 0.506 | 1.26 | 2.4 | 3.68
